Test [1] deals with T1, PSM2T-LP (double T821A/T826A large pocket mutant of RB) (UniProt P06400 379-928).
T1 construct: range 379-928; Expressed by cotransfection in HEK 293 cells
T1 sequence (looked up): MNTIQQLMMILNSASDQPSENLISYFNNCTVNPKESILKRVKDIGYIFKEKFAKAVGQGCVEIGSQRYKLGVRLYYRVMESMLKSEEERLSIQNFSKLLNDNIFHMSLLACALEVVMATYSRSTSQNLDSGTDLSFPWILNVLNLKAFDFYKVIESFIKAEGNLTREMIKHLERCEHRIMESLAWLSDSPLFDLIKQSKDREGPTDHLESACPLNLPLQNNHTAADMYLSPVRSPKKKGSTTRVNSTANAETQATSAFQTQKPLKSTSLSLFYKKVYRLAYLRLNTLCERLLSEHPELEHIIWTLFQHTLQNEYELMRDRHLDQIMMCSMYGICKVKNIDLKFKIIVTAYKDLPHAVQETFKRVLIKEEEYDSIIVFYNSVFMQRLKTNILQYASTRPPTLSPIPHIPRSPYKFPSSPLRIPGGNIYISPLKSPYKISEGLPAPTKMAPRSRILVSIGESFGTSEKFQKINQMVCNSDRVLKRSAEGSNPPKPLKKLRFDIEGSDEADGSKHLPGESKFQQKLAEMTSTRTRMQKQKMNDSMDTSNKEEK
Nature of the test: cotransfection in HEK 293, IP with anti-V5, western with anti-Rb (851). An excerpt: (§1) Equal amounts of cell extracts were precipitated with anti-V5 antibody. Upper panel, the presence of WT-LP or PSM2T-LP in immunoprecipitates was probed by western blot analysis using anti-Rb antibody (851). The right-hand arrow indicates the position of the Rb large pocket fragment. The lower band present in all three lanes is immunoglobulin heavy chain, which serves as a loading control. Middle panel, anti-V5 immunoprecipitates were subjected to western blot analysis with anti-V5 antibody to confirm pp32V5 immunoprecipitation. Lower panel, cell extracts were subjected to western blotting with anti-Rb antibody (851) to confirm expression of WT-LP and PSM2T-LP.
(§2) Immunoprecipitation and Immunoblotting-1×10⁶ HEK 293 cells were seeded onto a T-150 flask. 24 hours later, cells were transfected with 15 μg of the indicated plasmids. 48 hrs post transfection, cells were harvested, washed twice with cold PBS, and lysed with MPER (Pierce) containing 1× protease inhibitor cocktail (HALT, Pierce). Lysates were centrifuged at 4° C. for 30 minutes at 16,000 g to remove particulate material. The supernatant was precleared for 2 hours with protein A-agarose (Roche). The pre-cleared cell lysates were mixed with the indicated antibodies and protein A- or protein G-agarose (Roche) and incubated at 4° C. overnight. […] The eluted materials were subsequently analyzed by immunoblotting with the indicated antibodies. […]

In test [2] the target is T2, WT-LP (wild-type large pocket fragment of RB, amino acids 379-928) (UniProt P06400 379-928).
T2 construct: range 379-928; Expressed by cotransfection in HEK 293 cells; Construct from Knudsen et al., 1996; also called Rb large pocket fragment
T2 sequence (looked up): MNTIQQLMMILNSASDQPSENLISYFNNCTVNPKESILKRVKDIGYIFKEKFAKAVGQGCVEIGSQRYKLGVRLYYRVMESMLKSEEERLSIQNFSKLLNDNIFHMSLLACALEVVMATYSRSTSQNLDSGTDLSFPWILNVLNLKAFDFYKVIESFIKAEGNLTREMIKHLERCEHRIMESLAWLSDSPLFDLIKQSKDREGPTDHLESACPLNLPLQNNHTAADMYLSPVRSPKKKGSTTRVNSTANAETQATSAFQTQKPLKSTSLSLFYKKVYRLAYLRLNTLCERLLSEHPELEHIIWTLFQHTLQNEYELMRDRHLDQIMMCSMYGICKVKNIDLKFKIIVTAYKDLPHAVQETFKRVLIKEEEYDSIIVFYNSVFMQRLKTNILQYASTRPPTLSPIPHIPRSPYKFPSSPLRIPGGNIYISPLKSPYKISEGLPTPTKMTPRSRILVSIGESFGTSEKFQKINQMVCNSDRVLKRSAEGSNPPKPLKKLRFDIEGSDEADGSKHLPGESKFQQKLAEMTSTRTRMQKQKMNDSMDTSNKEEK
The test is described as above.
Source text: as §1, §2

For test [3], the target named is T3, Retinoblastoma protein (Rb), endogenous in the cells used (UniProt P06400 2-928).
T3 construct: also called endogenous Rb; total Rb
T3 sequence (looked up): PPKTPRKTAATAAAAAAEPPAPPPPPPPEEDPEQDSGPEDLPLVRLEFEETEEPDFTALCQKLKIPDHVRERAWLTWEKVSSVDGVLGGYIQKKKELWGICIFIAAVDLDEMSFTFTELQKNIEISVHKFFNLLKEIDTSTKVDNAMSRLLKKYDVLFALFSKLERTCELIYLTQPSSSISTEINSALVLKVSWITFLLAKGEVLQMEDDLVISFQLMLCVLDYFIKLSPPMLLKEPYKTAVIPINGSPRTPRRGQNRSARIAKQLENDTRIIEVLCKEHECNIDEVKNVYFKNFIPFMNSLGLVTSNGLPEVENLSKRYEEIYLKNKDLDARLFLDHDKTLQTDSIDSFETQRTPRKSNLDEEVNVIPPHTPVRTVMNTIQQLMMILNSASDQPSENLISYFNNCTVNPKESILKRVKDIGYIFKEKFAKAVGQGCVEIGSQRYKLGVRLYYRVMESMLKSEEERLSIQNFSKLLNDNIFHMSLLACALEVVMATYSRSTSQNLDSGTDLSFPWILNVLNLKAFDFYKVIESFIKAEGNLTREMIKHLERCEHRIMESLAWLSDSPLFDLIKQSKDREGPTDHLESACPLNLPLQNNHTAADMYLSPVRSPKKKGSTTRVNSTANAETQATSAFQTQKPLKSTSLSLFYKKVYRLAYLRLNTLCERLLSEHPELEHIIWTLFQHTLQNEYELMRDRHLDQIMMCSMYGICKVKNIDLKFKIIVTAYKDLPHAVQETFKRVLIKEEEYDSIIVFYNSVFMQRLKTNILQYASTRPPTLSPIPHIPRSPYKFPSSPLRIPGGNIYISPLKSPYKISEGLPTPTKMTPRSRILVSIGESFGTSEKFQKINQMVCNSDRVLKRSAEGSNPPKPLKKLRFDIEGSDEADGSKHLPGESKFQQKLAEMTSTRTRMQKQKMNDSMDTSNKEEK
Nature of the test: IP with anti-Rb (G99-2005) from transfected HEK 293 extracts, anti-V5 western. As for the experimental part:
Immunoprecipitation and Immunoblotting-1×10⁶ HEK 293 cells were seeded onto a T-150 flask. 24 hours later, cells were transfected with 15 μg of the indicated plasmids. 48 hrs post transfection, cells were harvested, washed twice with cold PBS, and lysed with MPER (Pierce) containing 1× protease inhibitor cocktail (HALT, Pierce). Lysates were centrifuged at 4° C. for 30 minutes at 16,000 g to remove particulate material. The supernatant was precleared for 2 hours with protein A-agarose (Roche). The pre-cleared cell lysates were mixed with the indicated antibodies and protein A- or protein G-agarose (Roche) and incubated at 4° C. overnight. The next day, the reaction mixture was washed three times with cold PBS, boiled for 3 minutes and eluted in 2×SDS buffer. The eluted materials were subsequently analyzed by immunoblotting with the indicated antibodies.
While pp32 inhibits transformation, pp32r1 (ANP32C) and pp32r2 (ANP32D), both highly homologous to pp32 at the protein level (87.7% and 89.3% respectively) are tumorigenic (Kadkol, S. S., Brody, J. R., Pevsner, J., Bai, J., and Pasternack, G. R. (1999) Nature Med. 5, 275-279). Therefore, the possibility of an interaction between these family members and Rb was explored. pp32r1 and r2 were V5-epitope tagged and overexpressed in HEK 293 cells. HEK 293 cells were transfected with pp32V5, pp32r1V5, pp32r2V5 or LacZV5 expression vectors as indicated. Equal amounts of cell extracts were precipitated with anti-Rb (G99-2005) antibody and analysed by western blotting with anti-V5 antibody. Equal amounts of cell lysates were immunoprecipitated with anti-Rb and immunoblotted with anti-V5.

B1: V5-epitope tagged pp32 (pp32V5) (other, not shown: small tags and cut ends)
chain: MEMGRRIHLELRNRTPSDVKELVLDNSRSNEGKLEGLTDEFEELEFLSTINVGLTSIANLPKLNKLKKLELSDNRVSGGLEVLAEKCPNLTHLNLSGNKIKDLSTIEPLKKLENLKSLDLFNCEVTNLNDYRENVFKLLPQLTYLDGYDRDDKEAPDSDAEGYVEGLDDEEEDEDEEEYDEDAQVVEDEEDEDEEEEGEEEDVSGEEEEDEEGYNDGEVDDEEDEEELGEEERGQKRKREPEDEGEDDD
notes: Expressed by transient transfection in HEK 293 (or NIH 3T3) cells and tested in cell extracts; also called V5-tagged pp32
On to B1, for which the binding result is listed as “no binding” in test [1] and “binds” in test [2].

B2: pp32r2V5 (V5-epitope tagged pp32r2, ANP32D) (other, UniProt O95626 1-131, looked up, not shown: small tags and cut ends)
chain: MEMGKWIHLELRNRTPSDVKELFLDNSQSNEGKLEGLTDEFEELELLNTINIGLTSIANLPKLNKLKKLELSSNRASVGLEVLAEKCPNLIHLNLSGNKIKDLSTIEPLKKLENLESLDLFTCEVTNLNNY
notes: Overexpressed in HEK 293 cells
In the case of B2, the binding result in test [3] is recorded as “no binding”.

B3: pp32r1V5 (V5-epitope tagged pp32r1, ANP32C) (other, UniProt O43423 1-234, looked up, not shown: small tags and cut ends)
chain: MEMGRRIHSELRNRAPSDVKELALDNSRSNEGKLEALTDEFEELEFLSKINGGLTSISDLPKLKLRKLELRVSGGLEVLAEKCPNLTHLYLSGNKIKDLSTIEPLKQLENLKSLDLFNCEVTNLNDYGENVFKLLLQLTYLDSCYWDHKEAPYSDIEDHVEGLDDEEEGEHEEEYDEDAQVVEDEEGEEEEEEGEEEDVSGGDEEDEEGYNDGEVDGEEDEEELGEEERGQKRK
notes: as for B2
As to B3, the binding result in test [3] was “no binding”.

B4: pp32Δ201-360V5 (other, not shown: small tags and cut ends)
chain: MEMGRRIHLELRNRTPSDVKELVLDNSRSNEGKLEGLTDEFEELEFLSTINVGLTSIANLPKLNKLFNCEVTNLNDYRENVFKLLPQLTYLDGYDRDDKEAPDSDAEGYVEGLDDEEEDEDEEEYDEDAQVVEDEEDEDEEEEGEEEDVSGEEEEDEEGYNDGEVDDEEDEEELGEEERGQKRKREPEDEGEDDD
notes: also called pp32D201-360V5
As to B4, in test [3], the binding result is listed as “no binding”.

These data come from patent US20070141062A1 (published 2007).
